Experimental data reported in the nanobody polyreactivity screen of Harvey et al. (2022).

assay: yeast display, Sf9 membrane polyspecificity reagent, FACS + sequencing; frameworks hold sequencing errors
Summary of the method: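 Polyreactivity labels are assigned by the sorting gate from which each nanobody was recovered. The gates were low and high (top ~1%), set on anti-HA fluorescence for expression and streptavidin fluorescence for reagent binding. Before sorting, galactose-induced (36–48 hours) yeast display cells were stained for 1 hour at 4 °C with 10% biotinylated, detergent-solubilized Sf9 membrane reagent.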

Sequence	polyreactivity (PSR sort gate)
QVQLVESGGGLVQAGGSLRLSCAASGSIYGYYVMGWNRQAPGKERELVAAISRSGGSTYYADSVKGRFTISRDNAKNTFYLQMNSLKPEDTGVYYCAASFAVRYPRLDYWGQGTQVTVSS	high polyreactivity
QVQLVESGGGLVQAGGSLRLSCAASGSIYLYNAMGWYRQAPGKERELVAVINGRGGTYYADSVKGRFTISRDNAKNNVYLQMNSLKPEDTAVYYCATGYAPSAWYDSVRFEDRDSWGQGTQVTVSS	low polyreactivity
QVQLVESGGGLVQAGGSLRLSCAASGSIYRNNAMGWYRQAPGKERELVAVISRRAGNTYYAVSVKGRFTISRDNAKNTVYLQMNSLKPEDTAVYYCAADYSKSSIRGDYWGQGTQVTVSS	low polyreactivity
QVQLVESGGGLVQAGGSLRLSCAASGSIYRYAMGWYRQAPGKERELVASISRRGGSTYYADSVKGRFTISRDNAKNTVYLQMNSLKPEDTAVYSCNAYGYSFGYDYWGQGTQVTVSS	high polyreactivity
QVQLVESGGGLVQAGGSLRLSCAASGSIYSYTMGWYRQAPGKEKELVAAITYSGDSTYYADSVKGRFTISRDNAKNTVYLQMNSLKPDDTAVYYCAKSGTLSEYDYWGQGTQVTVSS	low polyreactivity
QVQLVESGGGLVQAGGSLRLSCAASGSIYSYTMGWYRQAPGKEREFVAAITYSGDSTYYADSVKGRFTISRDNEKNTVYLQMNSLTPEDTAVYDCAAAGGRGSYYRLDYWGQGTQVTVSS	low polyreactivity
QVQLVESGGGLVQAGGSLRLSCAASGSIYTPNVMGWYRQAPGKERELVAAISQSGGSTFYADSVKGRFTISRDNAKNTVYLQMNSLKPEDTAVYYCATEYYGPVYDLDYDYWGQGTQVTVSS	low polyreactivity
QVQLVESGGGLVQAGGSLRLSCAASGSIYYGYAMGWYRQAPGKERELVAAISSSGGSTYYADSVKGRFTISRDNAKNTVYLQMNSLKPEDTAVYYCAATRRKAYLYPSDYWGQGTQVTVSS	high polyreactivity
QVQLVESGGGLVQAGGSLRLSCAASGSIYYHNAMGWYRQAPGKERELVAAITGSGGSTYYADSVKGRFTISRDNAKNTVYLQMNSLKPEDTAVYYCAADGYTKWWISWGYDYWGQGTQVTVSS	low polyreactivity
QVQLVESGGGLVQAGGSLRLSCAASGSIYYNAMGWYRQAPGKERELVASISTGDSTDYADSVKGRFTISRDNAKNTVYLQMNSLKPEDTAVYYCAAVTRLGYWDDYWGQGTQVTVSS	low polyreactivity
QVQLVESGGGLVQAGGSLRLSCAASGSIYYYAMGWYRQAPGKERELVAVITSRGGSTNYADSVKGRFTISRDNAKNTVYLQMNSLKPQDTAVYYCNADYYRYYSITYGGDYWGQGTQVTVSS	high polyreactivity
QVQLVESGGGLVQAGGSLRLSCAASGSLFDHYAMGWYRQEPGTERELVARISWSGGSTYYADSVKGRFTISRDNAKNTVYLQMNRLKPEDTAVYYCARAGRSWDTLYKYYLEHDYWGQGTQVTVSS	low polyreactivity
QVQLVESGGGLVQAGGSLRLSCAASGSLYFAYAMGWYRQAPGKEREFVAAISASGGSTSYADSVKGRFTISRDNAKNTVYLQMNSLKPEDTAVYYCATEHRVTTYDYWGQGTQVTVSS	low polyreactivity
QVQLVESGGGLVQAGGSLRLSCAASGSMFEGYAMGRYLQAPGKVRELVAAMTWSSGSTYYADSVKGRFTISRDNAKNTVYLQMNSLKPEETAVYSCAVDGGDFSSYGYWGQGTQVTVSS	low polyreactivity
QVQLVESGGGLVQAGGSLRLSCAASGSMFKNNAMGWYRQAPGKARELVAAISRSGGSTYYADSVKGRFTISRDNAKNTVYLPMNSLKPEDTAVYYCARDVDTHYPYAYDYWGQGTQVTVSS	high polyreactivity
QVQLVESGGGLVQAGGSLRLSCAASGSNFAINAMGWYRQAPGKERELVAAITRTASTYADSVKGRFTISRDNAKNTVYLQMNSLKPEDTAVYYCNADFAYRYYYWGQGTQVTVSS	low polyreactivity
QVQLVESGGGLVQAGGSLRLSCAASGSNFARYAMGWYRQAPGKERELVAAINSTVSTNYADSVNGRFTISRDNPKNTVYLQMNSLKPEDTAVYYCAVDIVRGGRDSWGQGTQVTVSS	low polyreactivity
QVQLVESGGGLVQAGGSLRLSCAASGSNFDDNAMGWYRQAPGKERELVAAINSTDITNYADSVKGRFTISRDNAKNTVYLQMTSLKPEDTAVYYCNVDDWGQGTQVTVSS	low polyreactivity
QVQLVESGGGLVQAGGSLRLSCAASGSNFDDYGMGWYRQAPGKEREFVATITFGGGTYADSVKGRFTISRDNAKNTVYLQMTSLKPEDTAVYYCAKDWWTYRSSRPSDGTPARDDYWGQGTQVTVSS	low polyreactivity
QVQLVESGGGLVQAGGSLRLSCAASGSNFDYYAMGWYRQAPGKERELVAAIRVSGGSTYYADSVKGRFTISRDNAKNTVYLQMNSLKPEDTAVCYCASSYYDFNYEYYYWGQGTQVTVSS	high polyreactivity
QVQLVESGGGLVQAGGSLRLSCAASGSNFGANAMGWYRQAPGKEREFVAAISGSGTTTYYADSVKGRFTISRDNAKNTVYLQMNSLKPEDTAVYYCAKTRKAHWLGYWGQGTQVTVSS	low polyreactivity

Sequence	polyreactivity (PSR sort gate)
QVQLVESGGGLVQAGGSLRLSCAASGSNFGWYTMGWYRQAPGKERELVAAITSRGTRTSYADSVKGRFTISRDYAKNTVYLQMNSLKPEDTAVYYCAARVFRGLGEYYWGQGTQVTVSS	high polyreactivity
QVQLVESGGGLVQAGGSLRLSCAASGSNFHLYAMGWYRQAPGKERELVADIDLSGGSTYYADSVKGRFTISRDNAKNTVYLQMNSLKPEDTAVYYCGADHVSSLGFDYWGQGTEVTVSS	low polyreactivity
QVQLVESGGGLVQAGGSLRLSCAASGSNFNPYDLGWYRQAPGKERELVAAIDWSGGSTYYADSVKGRFTISRDNAKNTVYLQMNSLKPEDTAVYYCNAESYQDTLFGADNDYDYWGQGTLVTVSS	low polyreactivity
QVQLVESGGGLVQAGGSLRLSCAASGSNFPWNAKGWYRQAPGKERELVAGINESGGSTYYADSVKGRFTISRDYAKNTVYLQMNSLKPEDTAVYYCAADGYPSVGDDYWGQGTQVTVSS	low polyreactivity
QVQLVESGGGLVQAGGSLRLSCAASGSNFRTYPIGWYRQAPGKERELVAAISSNGGSTYYADSVKGRFTISRDNAKNTVYLQMNSLKPEDTAVYYCANDQTGYWYNRYGYWGQGTQVTVSS	low polyreactivity
QVQLVESGGGLVQAGGSLRLSCAASGSNFRYNAIGWYRQAPGKERELVAAISWSGGSTYYADSVKGRFTISRDNAKNTVYLQMNSLKPEDTAVYYCATRYYGIVPGRRYGYWGQGTQVTVSS	low polyreactivity
QVQLVESGGGLVQAGGSLRLSCAASGSNFSDNAMGWYRQAPRKERELVAAITSGGSTYYADSVKGRFTISRDKAKNTVYLQMNSLKPEDSAVYYCAADYWGQGTQVTVSS	low polyreactivity
QVQLVESGGGLVQAGGSLRLSCAASGSNFSFYAMGWYRQAPGKERELVAAISWSGGTTYYADSVKGRFTISRDNAKNTVYLQMNSLKPEDTAVYYCAASEYDGYGGYYWGQGSQVTVSS	low polyreactivity
QVQLVESGGGLVQAGGSLRLSCAASGSNFTPYAMGWYRQAPGKERELVAAISGSGGSTRYADSVKARYTISRDNAKNTVYLQMNSLKPEDTAVYYCAADRYTYIWYHIYDYWGQGTQVTVSS	low polyreactivity
QVQLVESGGGLVQAGGSLRLSCAASGSNFVGNAMGWYRQAPGKERELFAAISSGGSTYYADSVKGRFTISRDNAKNTVYLQLNSLKPEDTAVYYCAAYYVRRYSSRPKDDYWGQGTQVTVSS	low polyreactivity
QVQLVESGGGLVQAGGSLRLSCAASGSNFVWYVMGWYRQAPGKDRELVAAITWSAARTYYADSVKGRFTISRDNAKNTVYLQMNSLKPEDTAVYYCAADGYPLQLYNYWGQGTQVTVSS	low polyreactivity
QVQLVESGGGLVQAGGSLRLSCAASGSNFYFYAMGWYRQAPGKERELVAGITSSGASTYADSVKGRFTISRDNEKNTVYLQMNSLKPEDTAVYYCAAYYPLRKGYGYWGQGTQVTVSS	high polyreactivity
QVQLVESGGGLVQAGGSLRLSCAASGSNIYPNAMGWYRQEPGKEREFVAVISSGGSTYYADSVKGRFTISRDNAKNTVYLQMNSMKPEDTAVYYCAADRGTVSFLYSPRAVDYWGQGTQVTVSS	low polyreactivity
QVQLVESGGGLVQAGGSLRLSCAASGSNLDYNAMGWSRQAPGKERELVAAISTGGRTNYADSVKGRFTISRDNAKNTVYLQMNSLKPDDTAVYYCAADTTTEITDTDYDYWGQGTQVTVSS	low polyreactivity
QVQLVESGGGLVQAGGSLRLSCAASGSNLLRYAMGWYRQAPGKERELVAAIRTIGASTNYADSVKGRYTISRDNAKNTVYLLMNSMKPEDTAVYYCNSYLAEVLPVGKGRLYDYWGQGTQVTVSS	low polyreactivity
QVQLVESGGGLVQAGGSLRLSCAASGSNLVTNSMGWYRQAPGKERELVATITSSGTSTYYADSVKGRFTISRDNAKNTVYLQMNSLKPEDTAVYYCNADDQFAYVVYLWEYHIVQYDYWGQGTQVTVSS	high polyreactivity
QVQLVESGGGLVQAGGSLRLSCAASGSNSGYYVMGWYRQAPGKERELVAAITWRGGSTYYADSVKGRFTISRDNAKNTVYLQMNSLKPEDTAVYYCARSRYLWYTVPPKYGYWGQGTQVTVSS	high polyreactivity
QVQLVESGGGLVQAGGSLRLSCAASGSNVHYMGGERQAPGKERELVAGISWSGGSTYYADSVMGRFTISRDNAKNTVYLQMNSLKPEDTAVDYCAADYYAHQDYRFDYWGQGTQVTVSS	low polyreactivity
QVQLVESGGGLVQAGGSLRLSCAASGSNYRFYAMGWYRQAPGKERELVATISSSGGTTYYADSVKVRITISRDNAKNNVFLQMNSLKPEDTAVYYCAKDAFGWGRVYYYRSGYWGQGTQVTVSS	high polyreactivity
QVQLVESGGGLVQAGGSLRLSCAASGSNYSSNAMGWYRQATGKERELVAAISRSGVTTYYADSVKGRFTISRDNAKNTVYLQMNSLKPEDSAVYYCAAQPYSRLYGRYLGFQYKYDYWGQGTQLTVSS	low polyreactivity
